From US20190248902A1 (published 2019)
Changes are numbered by the printed parent chain. Blank lines part the entries; values can stand above or below the binder they belong to.

Tests used:
[1] = target: T1, human ASGR-1 carbohydrate binding domain (CBD) (148-291) (human, UniProt P07306 148-291); test: X-ray crystal structure, legend of FIG. 25
T1 construct: also called ASGR-1 CBD; ASGR-1 CRD
T1 sequence: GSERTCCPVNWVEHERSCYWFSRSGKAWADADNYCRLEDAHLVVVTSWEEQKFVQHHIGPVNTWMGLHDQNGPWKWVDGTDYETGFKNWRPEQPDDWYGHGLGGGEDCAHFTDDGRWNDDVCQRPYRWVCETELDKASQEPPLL

[2] = target: T1, human ASGR-1 carbohydrate binding …; test: X-ray crystal structure of the complex, 2.1 A
[3] = target: T2, Soluble ASGR-1 (human, UniProt P07306 62-291, biotinylated); test: limited antigen binding assay; biotinylated soluble ASGR-1 coated at 2.5 ng/mL on LumAvidin beads, FACS
T2 construct: Soluble recombinant protein; also called recombinant, soluble ASGR-1 biotinylated protein
T2 sequence: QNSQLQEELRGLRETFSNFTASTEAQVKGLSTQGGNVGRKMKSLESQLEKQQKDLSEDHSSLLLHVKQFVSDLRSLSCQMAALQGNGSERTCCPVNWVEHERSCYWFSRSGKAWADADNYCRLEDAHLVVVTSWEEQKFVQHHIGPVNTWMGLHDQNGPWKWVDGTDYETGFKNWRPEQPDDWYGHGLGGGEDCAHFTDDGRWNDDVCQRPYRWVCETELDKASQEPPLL
Description: To assess antibody and antigen interaction strength (relative binding affinity), ASGR-1 specific, ligand competing antibody hybridoma supernatants were tested in a limiting antigen binding assay. Titrated amounts of recombinant, soluble ASGR-1 biotinylated protein was incubated with streptavidin-coated LumAvidin Beads® for 45 minutes in the dark at room temperature and washed twice. Beads were resuspeneded in FACS buffer containing Stabilguard® and 0.05% Sodium Azide. Antigen-bound beads were then incubated with normalized hybridoma supernatant sample or controls for 18 hours in the dark at room temperature, washed twice, incubated with Alexa Fluor® 488 IgG fragment-specific detection antibody for 15 minutes in the dark at room temperature, washed once and finally resuspended in FACS buffer. Samples were analyzed using an Intellicyt iQue™ Screener Platform. FACS buffer supplemented with 1 mM Calcium Chloride was used in all steps. […] In this assay method, the antibody binding signal correlates with antibody affinity. Antibody binding data for a representative antigen coating concentration that fell in the linear range of the instrument signal detection is shown in Table 7.2. The degree of antibody binding to the target (ASGR-1) correlates with the measured fluorescent intensity and thus allows a relative comparison of affinities across the panel.

[4] = target: T3, Human ASGR-2 (human, UniProt P07307 1-311); test: FACS on transfected HEK 293 cells; Y = signal at least 2x irrelevant IgG
T3 construct: Expressed on HEK 293 cells; cDNA GenBank NM_080913.3; also called huASGR-2; hASGR-2
T3 sequence: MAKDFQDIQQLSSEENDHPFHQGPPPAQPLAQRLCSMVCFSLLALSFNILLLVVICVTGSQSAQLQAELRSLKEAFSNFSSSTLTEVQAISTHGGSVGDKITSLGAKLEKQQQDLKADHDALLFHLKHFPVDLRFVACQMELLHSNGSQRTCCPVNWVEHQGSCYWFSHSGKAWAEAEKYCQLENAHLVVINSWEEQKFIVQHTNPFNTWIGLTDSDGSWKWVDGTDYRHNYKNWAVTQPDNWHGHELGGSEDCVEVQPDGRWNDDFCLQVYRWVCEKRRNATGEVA
Description: Human ASGR-1-specific, ligand competing antibody samples were tested for binding to ASGR-1 from other species (cynomologus monkey ASGR-1, mouse ASGR-1, rat ASGR-1, dog ASGR-1, and pig ASGR-1) as well as to human ASGR-2 in FACS binding assays at normalized antibody concentrations. For cell-based assays, HEK 293 cells expressing the appropriate antigen of interest were mixed with antibody sample or controls, incubated for 1 hour at 4° C., and then washed twice. Cells with bound antibody were then incubated with Alexa Fluor® 647 IgG Fc fragment-specific detection antibody and 7-AAD viability stain for 15 minutes at 4° C., washed once and resuspended in FACS buffer. Samples were analyzed using a BD Accuri™ Flow Cytometer and an Intellicyt HyperCyt Autosampler. As a negative control, supernatants and controls were also screened against HEK 293 cells transfected with empty parental vector. […] For membrane-prep binding assays, ASGR-1 species specific membrane preps were used to coat LumAvidin® microspheres (beads) and tested for binding to selected hybridoma supernatants or controls. Briefly, ASGR-1 species specific membrane preps were incubated with streptavidin-coated LumAvidin® beads for 45 minutes in the dark at room temperature and washed twice. Beads were resuspeneded in FACS buffer containing Stabilguard®. […] Samples were analyzed using an Intellicyt iQue™ Screener Platform. […]

[5] = target: T4, Dog ASGR-1 (dog); test: FACS on transfected HEK 293 cells or membrane preps on beads; Y = signal at least 2x irrelevant IgG
T4 construct: Expressed on HEK 293 cells or as membrane prep on beads; cDNA GenBank XM_546579
T4 chain: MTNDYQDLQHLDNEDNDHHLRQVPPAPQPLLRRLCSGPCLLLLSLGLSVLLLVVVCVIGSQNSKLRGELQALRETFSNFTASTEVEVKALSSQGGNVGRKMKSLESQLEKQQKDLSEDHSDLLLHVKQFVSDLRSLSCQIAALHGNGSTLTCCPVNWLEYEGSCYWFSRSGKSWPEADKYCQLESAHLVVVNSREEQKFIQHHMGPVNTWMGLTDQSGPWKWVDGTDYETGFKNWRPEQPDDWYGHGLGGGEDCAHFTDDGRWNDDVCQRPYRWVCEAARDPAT
Description: (§1) Human ASGR-1-specific, ligand competing antibody samples were tested for binding to ASGR-1 from other species (cynomologus monkey ASGR-1, mouse ASGR-1, rat ASGR-1, dog ASGR-1, and pig ASGR-1) as well as to human ASGR-2 in FACS binding assays at normalized antibody concentrations. For cell-based assays, HEK 293 cells expressing the appropriate antigen of interest were mixed with antibody sample or controls, incubated for 1 hour at 4° C., and then washed twice. Cells with bound antibody were then incubated with Alexa Fluor® 647 IgG Fc fragment-specific detection antibody and 7-AAD viability stain for 15 minutes at 4° C., washed once and resuspended in FACS buffer. Samples were analyzed using a BD Accuri™ Flow Cytometer and an Intellicyt HyperCyt Autosampler. As a negative control, supernatants and controls were also screened against HEK 293 cells transfected with empty parental vector. […] For membrane-prep binding assays, ASGR-1 species specific membrane preps were used to coat LumAvidin® microspheres (beads) and tested for binding to selected hybridoma supernatants or controls. Briefly, ASGR-1 species specific membrane preps were incubated with streptavidin-coated LumAvidin® beads for 45 minutes in the dark at room temperature and washed twice. Beads were resuspeneded in FACS buffer containing Stabilguard®. Antigen-bound beads were then incubated with normalized antibody sample for 1 hour in the dark at room temperature, washed twice, incubated with Alexa Fluor® 488 IgG Fc fragment-specific detection antibody for 15 minutes in the dark at room temperature, washed once and finally resuspended in FACS buffer. Samples were analyzed using an Intellicyt iQue™ Screener Platform. FACS buffer supplemented with 1 mM Calcium Chloride was used in all steps. As a negative control, supernatants and controls were also screened against a non-ASGR-1 antigen membrane prep coated on the LumAvidin® beads.

[6] = target: T5, Cyno ASGR-1 (cynomolgus monkey, UniProt P07306 1-291 (human entry)); test: as above
T5 construct: Expressed on HEK 293 cells or as membrane prep on beads; cDNA from XP_005582755; also called cynomologus monkey ASGR-1
T5 chain: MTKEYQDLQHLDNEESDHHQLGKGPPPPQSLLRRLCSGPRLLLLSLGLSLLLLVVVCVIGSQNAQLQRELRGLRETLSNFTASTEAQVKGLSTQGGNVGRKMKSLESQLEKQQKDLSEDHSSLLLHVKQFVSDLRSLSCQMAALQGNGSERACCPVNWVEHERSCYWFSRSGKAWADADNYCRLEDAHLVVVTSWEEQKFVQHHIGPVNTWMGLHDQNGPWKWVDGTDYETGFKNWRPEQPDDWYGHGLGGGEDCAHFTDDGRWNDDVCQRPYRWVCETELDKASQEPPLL
Description: as §1

[7] = target: T6, Pig ASGR-1 (pig); test: as above
T6 construct: Expressed on HEK 293 cells or as membrane prep on beads; cDNA GenBank NM_001244458
T6 chain: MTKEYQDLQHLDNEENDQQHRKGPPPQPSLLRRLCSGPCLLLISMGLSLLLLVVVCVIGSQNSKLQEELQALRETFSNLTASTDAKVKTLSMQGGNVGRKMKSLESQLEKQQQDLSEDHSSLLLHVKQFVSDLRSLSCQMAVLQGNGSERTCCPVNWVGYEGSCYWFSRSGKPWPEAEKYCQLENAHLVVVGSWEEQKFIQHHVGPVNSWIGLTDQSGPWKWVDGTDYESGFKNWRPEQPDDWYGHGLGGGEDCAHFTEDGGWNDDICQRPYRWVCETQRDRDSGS
Description: as §1

[8] = target: T7, Mouse ASGR-1 (mouse, UniProt P34927 1-284); test: FACS on transfected HEK 293 cells or membrane preps on beads; binding = signal at least 2x irrelevant IgG
T7 construct: Expressed on HEK 293 cells or as membrane prep on beads; cDNA GenBank BC022106.1; also called muASGR-1; mASGR-1
T7 sequence: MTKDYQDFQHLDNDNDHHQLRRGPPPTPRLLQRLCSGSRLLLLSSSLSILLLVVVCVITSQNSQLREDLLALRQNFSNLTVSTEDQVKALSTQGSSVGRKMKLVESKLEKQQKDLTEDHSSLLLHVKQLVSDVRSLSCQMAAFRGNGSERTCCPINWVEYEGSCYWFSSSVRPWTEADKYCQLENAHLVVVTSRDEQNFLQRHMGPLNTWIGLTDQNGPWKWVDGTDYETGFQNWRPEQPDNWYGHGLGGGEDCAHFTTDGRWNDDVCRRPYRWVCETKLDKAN
Description: as §1

[9] = target: T1, human ASGR-1 carbohydrate binding …; test: X-ray crystal structure of the complex, 2.6 A
Excerpt: 2. The dataset was collected from a single crystal on beamline ID22 at the Argonne National Laboratory and processed with XDS/CCP4;
4. The 194C10 Fab/ASGR-1 CBD complex structure was solved by molecular replacement with the program Phaser; and […]

[10] = target: T8, human ASGR-1 (full length, expressed on cells) (human, UniProt P07306 1-291); test: flow cytometry; biotinylated ligand on CHO-S cells stably expressing ASGR-1, detected with streptavidin-AF647
T8 construct: single point mutants were made in the CBD in the context of full-length ASGR-1; also called hASGR-1; huASGR-1
T8 sequence: T5 chain with G22R, S30P, R33Q, A64S, R68E, L77F, A152T

B2: 22G5 Fab (Fab, V domains shown)
VH: EVQLLESGGGLVQPGGSLRLSCAASGFTFSSYAMNWVRQAPGMGLEWVSVISRSGGYTYYADSVKGRFTISRDNSKNTLYLQMNSLRAEDTAVYYCASRLAVAGSEAFDIWGQGTLVTVSS
VL: DIQMTQSPSSLSASVGDRVTITCRASQNISSYLNWYQQKQGKAPKLLIYAASSLQNGVPSRFSGRGSGTDFTLTISSLQPEDFATYYCQQSYRTPLFTFGPGTKVDFK
modifications: N-acetylglucosamine (NAG100) is listed among the light chain boundary residues
notes: Made by cleaving the 22G5-IgG4 mAb with papain; also called Fab fragment of 22G5
binding result [2]: binds

B5: desialylated, biotinylated asialofetuin (bovine fetuin, AHSG) (ligand, UniProt P12763 19-359, looked up)
chain: IPLDPVAGYKEPACDDPDTEQAALAAVDYINKHLPRGYKHTLNQIDSVKVWPRRPTGEVYDIEIDTLETTCHVLDPTPLANCSVRQQTQHAVEGDCDIHVLKQDGQFSVLFTKCDSSPDSAEDVRKLCPDCPLLAPLNDSRVVHAVEVALATFNAESNGSYLQLVEISRAQFVPLPVSVSVEFAVAATDCIAKEVVDPTKCNLLAEKQYGFCKGSVIQKALGGEDVRVTCTLFQTQPVIPQPQPDGAEAEAPSAVPDAAGPTPSAAGPPVASVVVGPSVVAVPLPLHRAHYDLRHTFSGVASVESSSGEAFHVGKTPIVGQPSIPGGPVRLCPGRIRYFKI
modifications: desialated with C. perfringens and A. ureafaciens neuraminidases; biotinylated with Innolink Biotin 354S
notes: also called bn-asialofetuin; protein ligand
EC50 [10]: 10.7 nM

Continued, values first:

binding result [1]: binds
B1: 4A2 Fab (Fab, V domains shown)
VH: QVQLVQSGTEVKKPGASVKVSCKASGYTFTNYDINWVRQATGQGLEWMGWMHPNSGNTGYAQKFQGRVTLTRDTSISTAYMELSSLRSEDTAVYYCASSSGWYYFDYWGQGTLVTVSS
VL: DIVMTQSPDSLAVSLGERATINCKSSQSILHSSNNNNYLAWFQQKPGQPPKLLLYWASTRESGVPDRFSGSGSGTDFTLTISSLQPEDVAVYYCQQYYNTPVTFGPGTKVGIKR
notes: Expressed directly as a Fab, with a double stop codon at the end of the CH1 domain; also called Fab fragment of 4A2

FACS Geomean [3]: 4910 FACS Geomean
binding result [4]: binds
binding result [5]: binds
binding result [6]: binds
binding result [7]: binds
binding result [8]: no binding
B3: 7F4 (antibody, V domains shown)
VH: QLQLQESGPGLVKPSETLSLTCTVSGGSISRSSYYWGWIRQPPGKGLEWIGNIYYSGATYYNPSLKSRVTISVDTSTNQFSLKLSSVTAADTAVYYCARHSGSWSLDYWGQGTLVTVSS
VL: DIQMTQSPSSLSASVGDRVTITCRTSQGIRNDLGWYQQKPGKAPKRLIYAASNLQSGVPSRFSGSGSGTEFTLTISSLQPEDFATYYCLQHSAYPLTFGGGTKVEIK
notes: Tested as hybridoma supernatant at normalized concentration

binding result [9]: binds
B4: 194C10 Fab (Fab, V domains shown)
VH: QVQLQQWGAGLLKPSETLSLTCAVSGGSFRYYYWSWIRQPPGKGLEWFGEINHAGSTNYNPSLKSRVTISIDTSKNQFSLKLRSVTAADTAVYYCARDYGAFDIWGQGTMVTVSS
VL: EIVLTQSPGTLSLSPGERATLSCRASPSVNSGYLAWYQQKPGQTPRLLIFGASSRATGIPDRFSASGSGADFTLTISRLEPEDFAVYFCQQYESSPWTFGQGTKVEIKR
notes: also called Fab fragment of 194C10
